Values joined by “and” are separate entries in the source; they are usually repeats but may differ in a detail not shown here. Equal entries are not always repeated.
B1: HA-TMEM233 (protein, UniProt B4DJY2 1-109, looked up)
Transmembrane protein 233: MSQYAPSPDFKRALDSSPEANTEDDKTEEDVPMPKNYLWLTIVSCFCPAYPINIVALVFSIMSLNSYNDGDYEGARRLGRNAKWVAIASIIIGLLIIGISCAVHFTRNA
modifications: HA tag
B2: TMEM233 35-109 (protein, UniProt B4DJY2 35-109, looked up, fragment)
chain: KNYLWLTIVSCFCPAYPINIVALVFSIMSLNSYNDGDYEGARRLGRNAKWVAIASIIIGLLIIGISCAVHFTRNA

Tests used:
NaV1.7/TMEM233 = NaV1.7/TMEM233 (Homo sapiens, UniProt B4DJY2+Q15858); assay: Proximity ligation assay NaV1.7 and TMEM233; details: Fig 5e
Method: HEK293 cells stably expressing β1/β2 were transiently transfected in T25 flasks using Lipofectamine 2000 with plasmids encoding GFP (0.35 μg) as a transfection control, as well as N-terminal HA-tagged TMEM233 (0.35 μg) and N-terminal FLAG- tagged NaV1.7 (1.0 μg) alone or in combination. The total amount of plasmid DNA/T25 flask was kept constant at 1.7 μg flask using empty pcDNA3.1 plasmid as required. After 24 h incubation at 37 °C, cells were plated on PDL-coated glass coverslips and cultured for a further 24 h. Cells were washed once using sterile phosphate-buffered saline, fixed with 4% formaldehyde for 5 min, permeabilized with 0.1% Triton-X 100 in PSS, blocked using proximity ligation bocking buffer (Sigma DUO82007) and incubated for 1 h with anti-FLAG (1:1000; Sigma F1804) and anti-HA (1:1000; Sigma H6908) antibodies in Duolink antibody diluent. Permeabilized cells were then washed twice with wash buffer A at room temperature for 5 min. Anti-mouse PLUS (Sigma DUO92001) and anti-rabbit MINUS (Sigma DUO92005) probes were diluted 1:5 in Duolink antibody diluent and incubated with cells for 1 h at 37 °C. Cells were then washed with wash buffer A at room temperature for 5 min twice and incubated with ligase diluted 1:40 in ligation buffer. After incubation at 37 °C for 30 mins, cells were washed twice with wash buffer A. Polymerase was diluted 1:80 in amplification buffer and incubated with cells for 100 mins at 37 °C. Cells were subsequently washed with wash buffer B twice for 10 mins and mounted with Duolink In Situ mounting media with DAPI. Cells were imaged on a Zeiss AxioImage M2 with Apotome2 and Axiocam 506 camera. Proximity ligation assay signal (PLA particles) in GFP-positive cells were quantified using ImageJ in collapsed stacks from 3–6 random images obtained per coverslip (Image>Type>8-bit; Image>Adjust>Threshold; Image>Analyze>Analyze Particles). Particles size was set to 0.0003–∞ and circularity to 0.00–1.00. The average number of particles/GFP-positive cells from three independent experiments was analyzed by One-way ANOVA.

NaV1.7 = NaV1.7 (Homo sapiens, UniProt Q15858); format: cell-based
Method: To determine recovery from fast inactivation, a 20 ms pulse to 0 mV from a holding potential of −90 mV was used to induce fast inactivation. A subsequent recovery period, ranging from 1 ms to 2216 ms in 50% increments at −90 mV, was followed by a last 20 ms test pulses to 0 mV to determine the time-dependence of recovery from fast inactivation. The proportion of available channels was determined by normalizing peak currents from the last to the first pulse. A two-phase exponential equation was fit to the normalized current, plotted as a function of time, to determine the time constants τ1 and τ2 of recovery from fast inactivation.

NaV1.7/TMEM233, sequence (Q07699 19-218, one chain of several, further chain): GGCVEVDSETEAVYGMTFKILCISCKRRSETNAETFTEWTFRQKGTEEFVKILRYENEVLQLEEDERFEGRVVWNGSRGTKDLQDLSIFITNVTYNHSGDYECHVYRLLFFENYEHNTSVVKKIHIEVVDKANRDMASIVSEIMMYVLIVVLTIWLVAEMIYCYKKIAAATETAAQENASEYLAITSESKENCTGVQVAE
NaV1.7/TMEM233, sequence (Q15858 whole entry, one chain of several): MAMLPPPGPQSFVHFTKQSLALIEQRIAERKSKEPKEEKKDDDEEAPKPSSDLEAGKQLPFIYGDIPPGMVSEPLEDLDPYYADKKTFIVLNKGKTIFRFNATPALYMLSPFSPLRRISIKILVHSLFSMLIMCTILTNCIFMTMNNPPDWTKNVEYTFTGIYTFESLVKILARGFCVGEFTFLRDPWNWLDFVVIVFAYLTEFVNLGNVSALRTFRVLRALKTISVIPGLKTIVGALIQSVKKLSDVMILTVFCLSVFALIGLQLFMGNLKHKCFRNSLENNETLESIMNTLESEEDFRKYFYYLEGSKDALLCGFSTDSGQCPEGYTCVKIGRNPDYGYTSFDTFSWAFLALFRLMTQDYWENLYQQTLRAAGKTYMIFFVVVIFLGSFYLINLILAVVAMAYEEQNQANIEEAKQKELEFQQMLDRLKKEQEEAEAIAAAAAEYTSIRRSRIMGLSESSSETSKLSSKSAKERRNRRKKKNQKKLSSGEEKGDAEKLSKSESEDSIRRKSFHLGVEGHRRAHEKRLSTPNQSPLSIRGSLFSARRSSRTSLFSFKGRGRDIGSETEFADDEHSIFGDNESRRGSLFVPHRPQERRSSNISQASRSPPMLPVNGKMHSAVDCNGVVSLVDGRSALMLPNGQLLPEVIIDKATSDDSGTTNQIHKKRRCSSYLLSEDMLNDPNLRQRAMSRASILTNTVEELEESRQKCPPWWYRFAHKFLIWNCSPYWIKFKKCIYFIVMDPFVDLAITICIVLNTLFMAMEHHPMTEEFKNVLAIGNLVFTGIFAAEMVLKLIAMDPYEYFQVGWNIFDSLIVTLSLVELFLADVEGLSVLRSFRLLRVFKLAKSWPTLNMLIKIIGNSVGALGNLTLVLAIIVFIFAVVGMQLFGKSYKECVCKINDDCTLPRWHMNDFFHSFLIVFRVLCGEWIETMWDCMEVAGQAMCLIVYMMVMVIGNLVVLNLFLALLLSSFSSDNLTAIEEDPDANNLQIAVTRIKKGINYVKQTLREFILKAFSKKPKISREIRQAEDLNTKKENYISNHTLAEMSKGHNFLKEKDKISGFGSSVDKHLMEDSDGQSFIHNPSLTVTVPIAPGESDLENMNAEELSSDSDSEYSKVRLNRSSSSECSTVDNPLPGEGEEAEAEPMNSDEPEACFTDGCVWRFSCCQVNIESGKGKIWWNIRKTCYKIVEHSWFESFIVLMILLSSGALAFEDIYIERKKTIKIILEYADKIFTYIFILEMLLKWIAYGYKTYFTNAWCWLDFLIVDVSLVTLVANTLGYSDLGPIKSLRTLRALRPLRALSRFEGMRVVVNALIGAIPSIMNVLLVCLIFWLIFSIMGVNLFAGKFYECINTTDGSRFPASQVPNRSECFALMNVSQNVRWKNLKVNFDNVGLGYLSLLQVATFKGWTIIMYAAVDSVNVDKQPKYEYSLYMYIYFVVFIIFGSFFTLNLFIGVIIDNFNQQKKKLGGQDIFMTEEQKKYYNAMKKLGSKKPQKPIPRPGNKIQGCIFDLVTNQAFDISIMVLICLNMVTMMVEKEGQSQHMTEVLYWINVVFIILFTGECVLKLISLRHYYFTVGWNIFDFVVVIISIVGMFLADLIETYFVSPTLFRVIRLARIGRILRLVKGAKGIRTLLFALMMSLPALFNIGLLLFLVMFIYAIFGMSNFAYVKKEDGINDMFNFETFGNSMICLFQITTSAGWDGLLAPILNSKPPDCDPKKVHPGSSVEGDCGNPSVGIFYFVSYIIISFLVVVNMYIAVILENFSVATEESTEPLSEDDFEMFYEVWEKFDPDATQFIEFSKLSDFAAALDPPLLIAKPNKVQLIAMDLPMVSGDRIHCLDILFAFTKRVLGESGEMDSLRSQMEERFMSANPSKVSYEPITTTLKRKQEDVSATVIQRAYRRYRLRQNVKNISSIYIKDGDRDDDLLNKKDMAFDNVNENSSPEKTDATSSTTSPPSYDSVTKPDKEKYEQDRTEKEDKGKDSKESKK
NaV1.7, sequence (Q15858 whole entry): as the sequence (Q15858 whole entry, one chain of several) above
NaV1.7, sequence (Q07699 19-218, further chain): as the sequence (Q07699 19-218, one chain of several, further chain) above

Molecule	particles/cell, mean (NaV1.7/TMEM233; mean of n = 3) [particles/cell]	particles/cell (NaV1.7/TMEM233; replicate 1) [particles/cell]	particles/cell (NaV1.7/TMEM233; replicate 2) [particles/cell]	particles/cell (NaV1.7/TMEM233; replicate 3) [particles/cell]	Tau Fast, individual values (NaV1.7)	Tau Fast, mean (NaV1.7)	Tau Fast, mean diff. NaV1.7/β1/TMEM233 35-109 vs. NaV1.7/β1 (NaV1.7)
B1	7.485	4.895	6.562	11			
B2					8.336 and 5.75 and 6.866 and 4.165 and 7.033 and 6.03 and 5.901	6.297	0.2467
